Data from publication doi:10.1101/2025.05.13.653872, “A novel non-catalytic function of PA2803-encoded PcrP contributes to polymyxin B resistance in P. aeruginosa and redefines the functional role of the PA2803 subfamily” (bioRxiv, 2025).

Target: the molecule itself
Test: cross-linking; 50 μM purified PcrP with 0.02, 0.05, 0.1 and 0.2% glutaraldehyde for 2 min in 50 mM NaCl, 1% glycerol, 20 mM HEPES pH 7.8; stopped with Tris-HCl pH 8.0; 12% SDS-PAGE, Coomassie

B1: 6XHis-PcrP (PA2803), recombinant, purified (natural protein)
chain: MPSSDQLPRFTALLFGLSGGLVDFGARTLSLALLRSHPHSPAEHLRDASLLPFAEAQSFLLRRKPNKSERQRLEQALDEAAGEQAEAIAGAVALLESLDEQRIPYAWQDELPESVCQRLAAPLGRANALIPLAGARPWPAPDGCWQALARLGIERLDGCVLVSAQPRQLQAGLNAGLWTIGLAASGPSCGLSPADWDALGHTERDRLRADATLELYRLGVHSVIDHLGELQPCLHDLAVRRLKGEKP
notes: PcrP (PA2803), P. aeruginosa PAO1; No tag cleavage step is described; The reverse primer carries the stop codon, so the His tag of the vector should be N-terminal; also called 6XHis-PA2803; pAAK001; source: E. coli BL21(DE3), purified (Ni-NTA)
  stoichiometry N: 2
